Test results taken from publication PMC10184827.

Experiments:
[1] = target: rabbit muscle actin (RMA; α-actin) (rabbit) (UniProt P68135)
[2] = target: human γ-actin (γ1-actin, cytoplasmic actin, ACTG1) purified from budding yeast (human) (UniProt P63261)
[3] = target: human β-actin (cytoplasmic actin, ACTB) purified from budding yeast (human) (UniProt P60709)
[4] = target: rabbit muscle actin (RMA; α-actin) (rabbit) (UniProt P68135); experiment: TIRF microscopy of single filament polymerization; 1 µM total actin monomers with 10% fluorescently labeled RMA; TIRF buffer (20 mM imidazole pH 7.4, 50 mM KCl, 1 mM MgCl2, 1 mM EGTA, 0.2 mM ATP, 10 mM DTT, 40 mM glucose, 0.25% methylcellulose); monomer addition to growing filaments

Chain of mDia1(FH1-C) (amino acids 571–1255) (O08808 571-1255): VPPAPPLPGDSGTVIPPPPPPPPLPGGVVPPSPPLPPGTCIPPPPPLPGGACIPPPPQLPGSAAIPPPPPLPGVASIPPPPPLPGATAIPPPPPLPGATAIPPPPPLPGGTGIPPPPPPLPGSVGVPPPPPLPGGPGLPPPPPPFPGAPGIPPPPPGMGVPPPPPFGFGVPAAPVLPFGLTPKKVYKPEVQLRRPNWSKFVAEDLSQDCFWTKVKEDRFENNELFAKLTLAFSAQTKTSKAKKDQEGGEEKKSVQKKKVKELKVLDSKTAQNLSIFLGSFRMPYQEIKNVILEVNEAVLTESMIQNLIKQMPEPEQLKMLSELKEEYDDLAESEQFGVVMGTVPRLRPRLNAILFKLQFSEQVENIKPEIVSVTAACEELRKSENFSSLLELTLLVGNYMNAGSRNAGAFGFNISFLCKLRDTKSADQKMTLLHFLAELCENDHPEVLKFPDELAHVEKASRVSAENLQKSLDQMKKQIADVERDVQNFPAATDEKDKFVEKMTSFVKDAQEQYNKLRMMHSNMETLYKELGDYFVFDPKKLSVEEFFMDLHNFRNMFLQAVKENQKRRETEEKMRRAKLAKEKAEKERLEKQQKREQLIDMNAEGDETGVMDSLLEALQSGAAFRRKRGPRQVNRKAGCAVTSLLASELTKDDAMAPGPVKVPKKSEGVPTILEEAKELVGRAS

Row | Substance | actin filament elongation rate by TIRF microscopy, 1 µM actin with 2 µM PFN1 and 10 nM mDia1(FH1-C) (subunits s^−1 µM^−1) [1] | actin filament elongation rate by TIRF microscopy, 1 µM actin with 2 µM PFN1 and 10 nM mDia1(FH1-C) (subunits s^−1 µM^−1) [2] | actin filament elongation rate by TIRF microscopy, 1 µM actin with 2 µM PFN1 and 10 nM mDia1(FH1-C) (subunits s^−1 µM^−1) [3] | filament elongation rate (subunits s^−1 µM^−1) [4]
1 | mDia1(FH1-C) (amino acids 571–1255) (from UniProt O08808 571-1255) (domain or fragment) | 73.6 | 61.2 | 59.3 | –
2 | rabbit muscle actin (RMA; α-actin) (from UniProt P68135 1-377) (natural protein) | – | – | – | 10
